Legend:
Conditions in all cases: both partners purified
[1] = molecular target: T1, oxi-RPN13^Pru following incubation with 3-fold molar excess TXNL1^Trx (UniProt Q16186 1-150, oxidized with 0.05 % H2O2, then treated with TXNL1 Trx); assay: ITC; RPN2 (940–953) in the syringe (205.7 or 160 μM), RPN13 Pru in the cell (20.57 or 16 μM); 25 °C, non-reducing buffer: 20 mM sodium phosphate, 50 mM NaCl, pH 6.0; one-site fit
T1 construct: RPN13 Pru domain, residues 1-150; source: E. coli BL21(DE3) pLysS, purified; not shown: His6, N-terminal, cleaved

[2] = molecular target: T2, RPN13 Pru (1–150), oxidized (UniProt Q16186 1-150, oxidized with 0.05 % H2O2; the oxidized residues are not given); assay: as above
T2 construct: RPN13 Pru domain, residues 1-150; also called oxi-RPN13^Pru; not shown: His6, N-terminal, cleaved

[3] = molecular target: T3, RPN13 Pru (1–150), reduced (UniProt Q16186 1-150); assay: ITC; RPN2 (940–953) in the syringe (156 μM), RPN13 Pru in the cell (15.6 μM); 25 °C, reducing buffer: 20 mM sodium phosphate, 50 mM NaCl, 10 mM βME, pH 6.0; one-site fit
T3 construct: Kept in reducing ITC buffer (10 mM βME); also called redu RPN13^Pru; RPN13 (1–150); source: E. coli BL21(DE3) pLysS, purified (Talon resin, PreScission elution, Superdex 75); not shown: His6, N-terminal, cleaved
T3 sequence (Q16186 1-150): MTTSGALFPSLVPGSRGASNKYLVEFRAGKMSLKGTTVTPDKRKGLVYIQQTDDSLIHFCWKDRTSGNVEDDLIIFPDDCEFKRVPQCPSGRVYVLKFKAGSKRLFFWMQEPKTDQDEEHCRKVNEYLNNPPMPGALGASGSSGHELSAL

T2 sequence (Q16186 1-150): as above
T1 sequence (Q16186 1-150): as above

Kd [1]: 18.9 ± 5.7 nM | Kd [2]: 40 ± 15.3 nM | Kd [3]: 12.4 ± 5.29 nM
B1: RPN2 peptide (940–953) (peptide, UniProt Q99460 940-953, looked up)
chain: QEPEPPEPFEYIDD
notes: The construct has a PreScission site after GST, but the methods tell only of elution as the GST fusion; ITC and NMR speak of the RPN2 peptide; also called RPN2 (940–953); RPN2^940–953

— article doi:10.1101/2025.07.31.667872 (bioRxiv, 2025)
